Target: DDB1 with N terminal Twin-Strep-FLAG (TSF) tag (human, UniProt Q16531 1-1140)
Assay: cryo-EM structure

Sequence of DDB1 with N terminal Twin-Strep-FLAG (TSF) tag (Q16531 whole entry): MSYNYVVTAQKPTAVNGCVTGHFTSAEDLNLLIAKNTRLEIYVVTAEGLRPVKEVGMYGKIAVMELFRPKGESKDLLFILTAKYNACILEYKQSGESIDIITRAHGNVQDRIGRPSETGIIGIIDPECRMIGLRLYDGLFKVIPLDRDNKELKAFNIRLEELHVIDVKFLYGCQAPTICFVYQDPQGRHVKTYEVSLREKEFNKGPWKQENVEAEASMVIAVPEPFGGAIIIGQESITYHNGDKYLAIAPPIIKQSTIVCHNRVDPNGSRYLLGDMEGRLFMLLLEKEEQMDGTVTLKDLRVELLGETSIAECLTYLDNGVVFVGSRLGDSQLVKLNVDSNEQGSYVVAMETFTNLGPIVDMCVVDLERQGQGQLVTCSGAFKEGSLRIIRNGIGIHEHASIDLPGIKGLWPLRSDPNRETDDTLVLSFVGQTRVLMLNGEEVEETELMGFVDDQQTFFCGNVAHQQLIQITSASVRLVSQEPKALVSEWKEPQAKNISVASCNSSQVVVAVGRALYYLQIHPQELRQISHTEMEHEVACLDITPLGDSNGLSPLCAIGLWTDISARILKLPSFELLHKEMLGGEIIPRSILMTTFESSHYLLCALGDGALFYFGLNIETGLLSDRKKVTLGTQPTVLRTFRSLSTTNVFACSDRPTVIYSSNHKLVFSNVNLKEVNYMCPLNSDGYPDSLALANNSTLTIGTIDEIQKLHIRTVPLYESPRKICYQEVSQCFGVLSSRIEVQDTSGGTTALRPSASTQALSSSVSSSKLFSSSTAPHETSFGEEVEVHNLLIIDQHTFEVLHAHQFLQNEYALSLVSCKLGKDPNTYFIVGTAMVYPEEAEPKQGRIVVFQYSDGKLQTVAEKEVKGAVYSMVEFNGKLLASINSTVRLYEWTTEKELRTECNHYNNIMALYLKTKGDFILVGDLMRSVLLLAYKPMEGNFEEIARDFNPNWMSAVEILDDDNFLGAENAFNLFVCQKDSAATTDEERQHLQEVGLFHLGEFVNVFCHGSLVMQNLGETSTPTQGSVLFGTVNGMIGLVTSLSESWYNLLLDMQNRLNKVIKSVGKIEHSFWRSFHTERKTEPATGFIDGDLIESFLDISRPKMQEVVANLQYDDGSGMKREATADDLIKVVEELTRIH

B1: AMBRA1^WD40 (residues 1-204 directly fused to residues 853-1044) (domain or fragment)
chain: MKVVPEKNAVRILWGRERGARAMGAQRLLQELVEDKTRWMKWEGKRVELPDSPRSTFLLAFSPDRTLLASTHVNHNIYITEVKTGKCVHSLIGHRRTPWCVTFHPTISGLIASGCLDGEVRIWDLHGGSESWFTDSNNAIASLAFHPTAQLLLIATANEIHFWDWSRREPFAVVKTASEMERVRLVRFDPLGHYLLTAIVNPSNSNIANTTYRLQWWDFTKFDLPEISNASVNVLVQNCKIYNDASCDISADGQLLAAFIPSSQRGFPDEGILAVYSLAPHNLGEMLYTKRFGPNAISVSLSPMGRYVMVGLASRRILLHPSTEHMVAQVFRLQQAHGGETSMRRVFNVLYPMPADQRRHVSINSARWLPEPGLGLAYGTNKGDLVICRPEALNSG
B1: binds.

From article doi:10.1101/2022.12.04.519012 (bioRxiv, 2022)
